Consider 1 molecule from US20240124575A1 (SIMCERE ZAIMING PHARMACEUTICAL, published 2024).

Read-outs that look alike come from different tables or passages of the source.

Experiment [1] addresses T1, human CD33 on U937 cells (endogenous) (human, UniProt P20138 18-364).
T1 construct: whole, on cells
Kind of experiment: FACS, U937 cells. As to the method:
The desired cells were expanded to a logarithmic growth phase in a T-75 cell culture flask. For adherent cells CHO-K1, the culture medium was removed by pipetting, and the cells were washed twice with a PBS buffer, digested with trypsin, and washed twice with a PBS buffer again after the digestion was stopped. For suspension cells U937, the medium supernatant was discarded by direct centrifugation, and the cell pellet was washed twice with PBS, and then incubated with a buffer containing human Fc Block (purchased from BD, Cat. No. 564220) for 15 min. After the cells obtained in the last step were subjected to cell counting, the cell pellet was resuspended to 2×10⁶ cells/mL with a blocking solution [PBS+2% (w/w) BSA] and added to a 96-well FACS reaction plate at 50 μL/well. The VHH-Fc antibody (a sample to be tested) was added at 50 μL/well, and the plate was incubated on ice for 2 h. […] After the plate was centrifuged and washed 5 times with a PBS buffer, the results were assayed and analyzed by FACS (FACS Canto™, purchased from BD Biosciences), so as to obtain the mean fluorescence intensity (MFI) of cells. Then, analysis was performed by software (GraphPad Prism8), data were fitted, and EC50 values were calculated.
For orientation: Flow cytometry measures light scatter and fluorescence of single cells or particles in a stream.

Experiment [2] addresses T2, human CD33-C2-his (human, UniProt P20138 136-260).
T2 construct: expressed in HEK293E; also called hCD33-C2-his; human CD33 protein C2-domain; not shown: His tag
The experiment can be described thus: ELISA on coated human CD33-C2-his. The source says:
Plates were coated with human CD33-V-his (membrane distal end) and human CD33-C2-his (membrane proximal end), respectively, according to the ELISA method in Example 8. The VHH humanized antibodies were classified based on the membrane distal end and the membrane proximal end, as shown in FIGS. 20A-20J and Table 44, which allowed the classification of the VHH humanized antibodies into the following classes: […]
In general terms: In an ELISA, binding on a coated surface is turned into a signal by an enzyme label.

Experiment [3] addresses T3, monkey CD33-His protein (monkey).
T3 construct: also called monkey CD33 protein
Kind of experiment: ELISA on coated monkey CD33-his.

Experiment [4] addresses T4, human CD33-His (extracellular domain Asp 18-His 259) (human, UniProt P20138 18-259).
T4 construct: range 18-259; bought protein; also called hCD33-his; human CD33 protein; not shown: His tag
Kind of experiment: competitive ELISA vs coated S006-NB146-40 2ug/mL; soluble 25ug/ml. The protocol:
(§1) VHH antibodies and control antibodies with known epitopes were subjected to epitope classification with competitive ELISA. ELISA plates were coated with 2 μg/mL antibodies according to the method in Example 5.1; the human CD33-his protein was subjected to a gradient dilution from 30 μg/mL, and EC80 values (Tables 26-27) were calculated. ELISA plates were coated with 2 μg/mL antibodies; after 25 µg/mL of antibodies to be tested were added, a human CD33-his protein having an EC80 concentration corresponding to each of the antibodies to be tested was then added for incubation for 2 h. The plates were washed 5 times with PBS, then HRP-labeled anti-His antibodies (purchased from GenScript, Cat. No. A00612) were added for incubation for 1 h, and the plates were washed 5 times. A TMB substrate was added at 50 μL/well and incubated at room temperature for 10 min, then a stop solution (1.0 M HCl) was added at 50 μL/well. OD_{450 nm} values were read using an ELISA plate reader (Insight, purchased from PerkinElmer), and the competition rate between the antibodies was calculated according to the OD_{450 nm} values using a formula. The results are shown in FIGS. 12A-12B, the higher the value of the competition rate, the closer the epitopes to which two antibodies bind.

Experiment [5] concerns the target T4, human CD33-His (extracellular domain …). Kind of experiment: competitive ELISA vs coated S006-NB146-181 3ug/mL; soluble 25ug/ml.
The target in experiment [6] is T3, monkey CD33-His protein. The experiment can be described thus: ELISA on coated monkey CD33-his. The source holds these as a separate data set.
Experiment [7] deals with T4, human CD33-His (extracellular domain …). The experiment can be described thus: competitive ELISA vs coated S006-NB146-46 2ug/mL; soluble 25ug/ml. The protocol:
as §1

Experiment [8] has the same target. Kind of experiment: competitive ELISA vs coated S006-NB146-139 3ug/mL; soluble 25ug/ml.
Experiment [9] shares this target. Kind of experiment: competitive ELISA vs coated S006-NB146-1 2ug/mL; soluble 25ug/ml. As to the method:
as §1

Experiment [10] has the same target. Kind of experiment: competitive ELISA vs coated S006-NB147-25 3ug/mL; soluble 25ug/ml.

T4 sequence (P20138 18-259 limits assumed): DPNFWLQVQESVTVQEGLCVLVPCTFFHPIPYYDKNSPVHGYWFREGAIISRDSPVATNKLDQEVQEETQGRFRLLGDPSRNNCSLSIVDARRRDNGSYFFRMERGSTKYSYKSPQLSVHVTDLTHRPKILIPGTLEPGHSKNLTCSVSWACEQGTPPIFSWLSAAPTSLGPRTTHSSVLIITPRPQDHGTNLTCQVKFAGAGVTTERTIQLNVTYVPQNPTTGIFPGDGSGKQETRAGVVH
T1 sequence (P20138 18-364): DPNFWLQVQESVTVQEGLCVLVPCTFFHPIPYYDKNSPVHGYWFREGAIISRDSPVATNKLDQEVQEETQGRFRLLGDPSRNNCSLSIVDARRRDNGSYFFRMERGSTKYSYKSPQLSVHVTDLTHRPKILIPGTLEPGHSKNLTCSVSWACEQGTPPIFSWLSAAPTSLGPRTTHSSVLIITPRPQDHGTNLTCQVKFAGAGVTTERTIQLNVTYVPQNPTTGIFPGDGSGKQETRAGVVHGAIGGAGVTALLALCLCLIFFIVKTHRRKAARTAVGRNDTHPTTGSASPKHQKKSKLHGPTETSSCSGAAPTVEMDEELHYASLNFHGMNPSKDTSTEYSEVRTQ
T2 sequence (P20138 other isoform, or with tags, fused parts or gaps limits assumed): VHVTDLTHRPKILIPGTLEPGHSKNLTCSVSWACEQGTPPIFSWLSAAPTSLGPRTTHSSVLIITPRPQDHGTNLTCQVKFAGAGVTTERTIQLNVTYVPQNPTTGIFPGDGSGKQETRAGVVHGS

B1: C33B904 hIgG1 (antibody, V domains shown)
VH: EVQLVESGGGLVQPGRSLRLSCAASGFTFDDYAMHWVRQAPGKGLEWVSGIGWSGGSIVYADSVKGRFTISRDNAKNSLYLQMNSLRAEDTALYYCAKDSPYGDFFDYWGQGTLVTVSS
VL: DIVMTQSPDSLAVSLGERATINCKSSQTVFYSSNNKNYLAWYQQKPGQPPKLLISWASTRKSGVPDRFSGSGSGTDFTLTVSSLQAEDVAVYYCQHYYSTPYTFGQGTKLEIKR
notes: intact human IgG1; variable regions from US20190382481A1; also called C33B3904; C331B904
In [1], B1 registered an EC50 of 8.41 nM. Also, the “Max MFI” value in experiment [1] was 599 MFI. Besides, the results for the “EC50 (read off the curve)” value in [2], in experiment [3] and in experiment [6] were ~0.2 nM, ~0.1 nM and ~0.2 nM, respectively. The inhibition rate is -5% in experiment [4]; 100% in [5]; 92% in experiment [7]; 101% in experiment [8]; 100% in experiment [9]; 99% in experiment [10].

What is called EC50 is the concentration at which the effect is half-maximal. The EC50 (read off the curve) is the concentration at which the effect is half-maximal.
